Common to all, as to experiment: cell-based or functional assay
Test [1] concerns the target HIV-1 Env of isolate 92WR026 (pseudovirus) (HIV-1).
The target of test [2] is HIV-1 Env of isolate MGRM-D-001 (HIV-1).
Test [3] addresses HIV-1 Env of isolate MGRM-G-004 (subtype G) (HIV-1).
In test [4] the target is HIV-1 Env of pseudovirus isolate MGRM-Chronic-B-001 (clade B) (HIV-1).
The target of test [5] is HIV-1 92BR020 Env (HIV-1).
The target in test [6] is HIV-1 92TH021 envelope protein (Env) on pseudovirus (HIV-1).
The target in test [7] is HIV-1 Env of isolate 92RW008 (pseudovirus) (HIV-1).
In test [8] the target is HIV-1 Env of isolate 98CN006 (pseudovirus) (HIV-1).
In test [9] the target is HIV-1 Env of isolate JRFL (HIV-1).
In test [10] the target is HIV-1 Env of isolate MGRM-AG-005 (subtype AG) (HIV-1).
For test [11], the target named is HIV-1 Env of isolate MGRM-D-012 (pseudovirus) (HIV-1).
Test [12] concerns the target HIV-1 Env of isolate MGRM-D-019 (pseudovirus) (HIV-1).
In test [13] the target is HIV-1 Env of isolate MGRM-F1-020 (HIV-1).
The target in test [14] is HIV-1 Env of pseudovirus isolate MGRM-C-019 (clade C) (HIV-1).
Test [15] concerns the target HIV-1 MGRM-AG-005 envelope protein (Env) on pseudovirus (HIV-1).
Test [16] concerns the target HIV-1 Env of pseudovirus MGRM-D-022 (HIV-1).
In test [17] the target is HIV-1 Env of pseudovirus MGRM-F1-004 (HIV-1).
For test [18], the target named is HIV-1 Env of pseudovirus MGRM-F1-008 (HIV-1).
Test [19] has as its target HIV-1 JR-CSF Env I414A (HIV-1 (isolate JR-CSF)) (UniProt P20871).
Test [20] deals with HIV-1 JR-CSF Env I415A (HIV-1 (isolate JR-CSF)) (UniProt P20871).
In test [21] the target is HIV-1 JR-CSF Env I423A (I4234 in the source) (HIV-1 (isolate JR-CSF)) (UniProt P20871).
For test [22], the target named is HIV-1 JR-CSF Env K421A (HIV-1 (isolate JR-CSF)) (UniProt P20871).
For another test, the target named is HIV-1 APV6 Env (HIV-1).

Turning to 4995_P16 (PGT-145) (antibody), the IC50 (µg/mL), single-round pseudovirus neutralization in test [1] was 1.45 µg/mL. Also, the IC50 (µg/mL), pseudovirus neutralization in [2] was 0.56 µg/mL; in test [3], greater than 50 µg/mL. For the same substance, the IC50, pseudovirus neutralization in test [4] was 3.22 µg/mL.

With 4993_K13 (PGT-141) (antibody), the values for the IC50, pseudovirus neutralization in test [5] and in [4] were greater than 10 µg/mL and greater than 50 µg/mL, respectively. In [1], this substance returned an IC50 (µg/mL), single-round pseudovirus neutralization of 1.78 µg/mL. Besides, the IC50 (µg/mL), pseudovirus neutralization in [2] and in test [3] was greater than 50 µg/mL in each case.

5329_C19 (PGT-136) (antibody): the IC50, pseudovirus neutralization in test [5] was greater than 10 µg/mL; in [10] it was greater than 50 µg/mL; in test [14], 20.1 µg/mL. In addition, the IC50 (ug/mL), pseudovirus neutralization in test [6] and in test [15] was greater than 10 µg/mL in each case. Also, the IC50 (µg/mL), pseudovirus neutralization in [7] was greater than 50 µg/mL; in [1], greater than 50 µg/mL; in test [8], 0.406 µg/mL; in [9], greater than 50 µg/mL; in test [11] it was greater than 50 µg/mL; in test [12], greater than 50 µg/mL. For the same substance, the IC50 (µg/mL), pseudovirus neutralization in test [13] was 9.31 µg/mL.

For PGT-144 (4970_K22) (antibody), the results for the IC50, pseudovirus neutralization in test [16], in test [17] and in test [18] were greater than 50 µg/mL, 0.105 µg/mL and 0.507 µg/mL, respectively.

As for PGT-142 (4995_E20) (antibody), the results for the IC50, pseudovirus neutralization in test [16], in [17] and in test [18] were greater than 50 µg/mL, 0.013 µg/mL and 0.124 µg/mL, respectively.

As for 5114_A19 (PGT-128) (antibody), the IC50 (µg/mL), pseudovirus neutralization in test [7] is 0.003 µg/mL; in test [1], 0.01 µg/mL; in [8], 0.015 µg/mL; in [9], 0.007 µg/mL; in test [11] it was greater than 50 µg/mL; in [12] it was greater than 50 µg/mL. The IC50 (µg/mL), pseudovirus neutralization in test [13] is 0.355 µg/mL. Besides, the IC50, pseudovirus neutralization amounted to 0.037 µg/mL in [10] and 0.01 µg/mL in test [14]. The Fold IC50 increase relative to wild-type (pseudovirus neutralization) in test [19] was 1.4 fold; in test [20], 0.7 fold; in test [21], 2.6 fold; in test [22], 2 fold.

As to 4995_E20 (PGT-142) (antibody), the IC50, pseudovirus neutralization is greater than 10 µg/mL in test [5] and greater than 50 µg/mL in test [4]. This substance had an IC50 (µg/mL), single-round pseudovirus neutralization in [1] of 1.78 µg/mL. In addition, the IC50 (µg/mL), pseudovirus neutralization in test [2] and in test [3] was greater than 50 µg/mL each time.

For the substance PGT-145 (4995_P16) (antibody), the results for the IC50, pseudovirus neutralization in [16], in [17] and in test [18] were 34.3 µg/mL, 0.361 µg/mL and 0.228 µg/mL, respectively.

With PGT-143 (4980_N08) (antibody), the IC50, pseudovirus neutralization in [16] was greater than 50 µg/mL; in test [17], 0.036 µg/mL; in test [18] it was 0.189 µg/mL.

As to 5136_H01 (PGT-131) (antibody), the IC50 (µg/mL), pseudovirus neutralization is 1.01 µg/mL in test [7]; 0.041 µg/mL in test [1]; 35.3 µg/mL in test [8]; 0.454 µg/mL in [9]; greater than 50 µg/mL in [11]; greater than 50 µg/mL in test [12]. The substance further came in with an IC50 (µg/mL), pseudovirus neutralization in test [13] greater than 50 µg/mL. Moreover, the figures for the IC50, pseudovirus neutralization in [10] and in test [14] were 1.04 µg/mL and 0.021 µg/mL, respectively. The Fold IC50 increase relative to wild-type (pseudovirus neutralization) in test [19] was 1 fold; in test [20], 0.6 fold; in [21], greater than 80 fold; in test [22], 11 fold.

Regarding 4970_K22 (PGT-144) (antibody), the IC50, pseudovirus neutralization was greater than 10 µg/mL in test [5] and greater than 50 µg/mL in test [4]. This substance came in with an IC50 (µg/mL), single-round pseudovirus neutralization in [1] of 32.7 µg/mL. For the same substance, the IC50 (µg/mL), pseudovirus neutralization in test [2] and in test [3] was greater than 50 µg/mL each time.

Take VRC01 (antibody): the IC50 (µg/mL), pseudovirus neutralization in test [2] and in [3] was greater than 50 µg/mL each time. The IC50, pseudovirus neutralization was greater than 50 µg/mL in test [16], 0.305 µg/mL in [17], 1.11 µg/mL in test [18] and 0.066 µg/mL in test [4].

Consider 5147_N06 (PGT-130) (antibody), for which the IC50, pseudovirus neutralization was 1.12 µg/mL in [5], greater than 10 µg/mL with HIV-1 APV6 Env (HIV-1), 0.54 µg/mL in test [10] and 0.01 µg/mL in [14]. The figures for the IC50 (ug/mL), pseudovirus neutralization in test [6] and in test [15] were 0.0082 µg/mL and 0.947 µg/mL, respectively. Further, the IC50 (µg/mL), pseudovirus neutralization in [7] is 0.039 µg/mL; in test [1], 0.037 µg/mL; in test [8] it was 0.258 µg/mL; in test [9], 0.046 µg/mL; in test [11], greater than 50 µg/mL; in test [12], greater than 50 µg/mL. Also, in [13], the IC50 (µg/mL), pseudovirus neutralization was 9.73 µg/mL. The Fold IC50 increase relative to wild-type (pseudovirus neutralization) in test [19] was 0.7 fold; in [20] it was 0.6 fold; in test [21], greater than 1000 fold; in test [22] it was 2.9 fold.

In the case of 4980_N08 (PGT-143) (antibody), the figures for the IC50, pseudovirus neutralization in test [5] and in test [4] were greater than 10 µg/mL and greater than 50 µg/mL, respectively. The substance also showed an IC50 (µg/mL), single-round pseudovirus neutralization in [1] of 5.36 µg/mL. Moreover, the IC50 (µg/mL), pseudovirus neutralization in test [2] and in [3] was greater than 50 µg/mL in each case.

As to PGT-141 (4964_G22; 4993_K13) (antibody), the IC50, pseudovirus neutralization in test [16] was greater than 50 µg/mL; in test [17], 0.021 µg/mL; in test [18], 0.193 µg/mL.

As to 5343_B08 (PGT-135) (antibody), the IC50, pseudovirus neutralization in test [5] is 0.104 µg/mL; in test [10] it was greater than 50 µg/mL; in test [14] it was 0.264 µg/mL. In addition, the IC50 (ug/mL), pseudovirus neutralization in test [6] and in [15] was greater than 10 µg/mL in each case. In addition, the IC50 (µg/mL), pseudovirus neutralization in test [7] was 1.42 µg/mL; in [1], 0.068 µg/mL; in test [8], 0.429 µg/mL; in test [9], greater than 50 µg/mL; in test [11], greater than 50 µg/mL; in [12], greater than 50 µg/mL. The same substance showed an IC50 (µg/mL), pseudovirus neutralization in test [13] of 0.168 µg/mL. For the same substance, the Fold IC50 increase relative to wild-type (pseudovirus neutralization) in test [19] is 1.2 fold; in [20] it was 5 fold; in test [21], 0.1 fold; in test [22], 0.3 fold.

The values are drawn from patent publication US20240132578A1.
